T1: CRTC3 phosphorylated at serine 370 (pSer370) (Homo sapiens, UniProt Q6UUV7)
T1 construct: All recombinant CRTC3 full-length protein versions are preceded with; FLAG (N); AVI (N); made in house; host or cells: Baculovirus expression system
T1 sequence (Q6UUV7 1-619): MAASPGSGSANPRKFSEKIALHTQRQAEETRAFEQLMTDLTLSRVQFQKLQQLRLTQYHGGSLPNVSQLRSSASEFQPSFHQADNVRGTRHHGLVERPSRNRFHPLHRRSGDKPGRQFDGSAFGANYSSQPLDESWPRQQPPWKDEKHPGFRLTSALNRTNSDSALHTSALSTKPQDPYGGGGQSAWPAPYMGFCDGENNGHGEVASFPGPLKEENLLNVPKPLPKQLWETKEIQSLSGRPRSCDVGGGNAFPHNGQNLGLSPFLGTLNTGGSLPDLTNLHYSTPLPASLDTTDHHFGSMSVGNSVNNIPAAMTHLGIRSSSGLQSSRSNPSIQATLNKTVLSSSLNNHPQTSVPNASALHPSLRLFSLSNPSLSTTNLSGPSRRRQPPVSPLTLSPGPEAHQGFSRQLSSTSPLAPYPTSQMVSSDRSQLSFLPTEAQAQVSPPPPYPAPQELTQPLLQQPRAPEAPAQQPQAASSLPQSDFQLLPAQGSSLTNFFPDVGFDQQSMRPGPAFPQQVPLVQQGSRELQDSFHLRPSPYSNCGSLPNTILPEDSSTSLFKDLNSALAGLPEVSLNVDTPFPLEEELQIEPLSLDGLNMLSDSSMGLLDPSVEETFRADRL

T2: CRTC3 phosphorylated at serine 329 (pSer329) (Homo sapiens, UniProt Q6UUV7)
T2 construct: All recombinant CRTC3 full-length protein versions are preceded with; FLAG (N); AVI (N); made in house; host or cells: Baculovirus expression system
T2 sequence (Q6UUV7 1-619): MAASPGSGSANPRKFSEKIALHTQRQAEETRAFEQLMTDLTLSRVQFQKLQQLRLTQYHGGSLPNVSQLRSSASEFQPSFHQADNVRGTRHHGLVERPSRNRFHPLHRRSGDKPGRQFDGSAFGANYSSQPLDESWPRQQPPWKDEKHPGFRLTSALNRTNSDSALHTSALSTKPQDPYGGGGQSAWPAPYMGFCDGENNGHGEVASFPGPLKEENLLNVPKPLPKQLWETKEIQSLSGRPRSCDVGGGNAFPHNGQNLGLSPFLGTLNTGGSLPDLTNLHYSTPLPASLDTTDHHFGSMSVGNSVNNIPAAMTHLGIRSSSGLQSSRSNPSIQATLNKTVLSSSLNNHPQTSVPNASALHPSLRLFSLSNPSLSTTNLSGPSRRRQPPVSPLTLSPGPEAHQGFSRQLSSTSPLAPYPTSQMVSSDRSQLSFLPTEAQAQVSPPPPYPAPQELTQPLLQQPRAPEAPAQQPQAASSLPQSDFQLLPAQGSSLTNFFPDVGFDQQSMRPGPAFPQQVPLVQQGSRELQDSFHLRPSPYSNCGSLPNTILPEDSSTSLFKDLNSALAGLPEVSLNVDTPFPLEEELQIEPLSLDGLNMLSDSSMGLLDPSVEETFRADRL


Legend:
[1] = target: T1, CRTC3 phosphorylated at serine 370 (pSer370); assay: Immunoblotting of in vitro phosphorylated recombinant CRTC3 wild type vs S370A mutant protein; assay type: binding; details: for specific recognition of human CRTC3 by phosphorylation state (conclusion of the experiments): serine 370
From the text: (§1) To facilitate the identification of hybridomas that produced antibodies specific for the phosphorylated immunizing peptides, CRTC3 proteins were designed that harbored serine to alanine mutations at either position 329 (S329A mutant) or 370 (S370A mutant; Table 3) rendering them unable to carry phosphate groups at positions 329 and 370, respectively. In addition, CRTC3 protein harboring the unmutated wild type (WT) amino acid sequence was produced as a control reagent (Table 3). Briefly, proteins were overexpressed in a Baculovirus expression system and purified using M2 anti-flag magnetic beads (Millipore-Sigma). The wild type protein was additionally subjected to subsequent size exclusion chromatography. All purified proteins were phosphorylated in vitro in the presence of internally produced SIK2 variant (6His-MBP-TEV-SIK2-PKD-UBA; SEQ ID NO: 187) and 1 mM ATP (Promega) in a buffer containing 50 mM Tris pH 7.5, 100 mM NaCl, 10 mM MgCl2 (all from Quality Biologicals), 0.1 mM EDTA (Corning), 1 mM DTT (MP Biomedicals). Phosphorylation reactions were quenched by the addition of excess EDTA.
(§2) Immunoblotting was done using the NuPAGE electrophoresis and western Blotting system (Invitrogen). Briefly, 0.1-0.15 microgram of WT or S329A mutant or S370A mutant recombinant protein along with WesternSure® Pre-stained Chemiluminescent Protein Ladder (Li-Cor) were loaded onto NuPAGE® Bis-Tris gels and separated by electrophoresis. Subsequently, proteins were transferred onto nitrocellulose membranes (iBlot® 2 Transfer Stacks, nitrocellulose, mini; ThermoFisher) using an iBlot 2® Gel Transfer Device (ThermoFisher). Specific bands on the nitrocellulose membranes were detected using the automatic Western blot-processing iBind™ Flex Western System (ThermoFisher) as per the manufacturer's recommendations. As primary antibodies served either undiluted hybridoma supernatant or recombinantly expressed mAbs at 0.25 microgram/ml, whereas Peroxidase AffiniPure Donkey Anti-Rabbit IgG (H+L) (Jackson ImmunoResearch) was used as secondary antibody at a 1:4000 dilution. The blots were developed using Amersham ECL Western Blotting Detection Reagent and an ImageQuant LAS4000 image scanner (both GE Healthcare Life Sciences).

[2] = test system: phosphorylated CRTC3 in THP1 lysates; assay: Immunoblotting of lysates of macrophage-differentiated, LPS-stimulated THP1 cells, untreated or incubated with dasatinib; assay type: binding, human; details: recombinant mAb
From the text: as §2
Cells were then either left untreated or incubated with dasatinib at 10 micromolar for 1.5 hours before cell harvest. […] Cells were washed in cold PBS (Gibco) and lysed on ice in 50 mM Tris HCl (Alfa Aesar) at pH 7.4, 1 mM DTT, 1% (vol/vol) Triton X-100 (both ThermoFisher), 1 mM EDTA (Gibco), 1 mM EGTA (Alfa Aesar) supplemented with protease inhibitor (cOmplete™ ULTRA Tablets; Roche) and phosphatase inhibitor (Phosstop, Roche) as per the manufacturer's recommendations for 1 hour. Extracted proteins were harvested by collecting the supernatant after centrifugation of the lysate for 20 minutes. Protein concentrations were determined using the Pierce Detergent-compatible Bradford Assay kit (Pierce). Lysate proteins were separated by gel electrophoresis and detected by immunoblotting as described above. […] That the detected signals indeed corresponded to CRTC3 was verified in independent experiments, in which similarly treated THP1 lysates were developed using an antibody recognizing CRTC3 independent of its phosphorylation status (EPR3440; purified; rabbit; Abcam; data not shown).

[3] = target: T2, CRTC3 phosphorylated at serine 329 (pSer329); assay: Immunoblotting of in vitro phosphorylated recombinant CRTC3 wild type vs S329A mutant protein; assay type: binding; details: for specific detection of human CRTC3 by phosphorylation state (conclusion of the experiments): serine 329
From the text: as §1, §2

[4] = recombinant mAb at 0.25 microgram/ml, FIG. 2D
[5] = undiluted hybridoma supernatant as primary antibody, FIG. 2B
[6] = THP1 lysates not incubated with a SIK inhibitor (lane 3)
[7] = THP1 lysates treated for 1.5 hours with dasatinib at 10 micromolar (lane 4)
[8] = recombinantly expressed mAb at 0.25 microgram/ml, FIG. 2C
[9] = undiluted hybridoma tissue culture supernatant as primary antibody, FIG. 2A

| Molecule | signal with recombinant CRTC3 WT vs S370A mutant by western blot [1, 4] | signal with recombinant CRTC3 WT vs S370A mutant by western blot [1, 5] | specific recognition of human CRTC3 by phosphorylation state (conclusion of the experiments) [1] | immunoblot signal at the expected molecular size in THP1 lysates [2, 6] | immunoblot signal at the expected molecular size in THP1 lysates [2, 7] | recognition of recombinant CRTC3 WT vs S329A variant by western blot [3, 8] | specific detection of human CRTC3 by phosphorylation state (conclusion of the experiments) [3] | recognition of recombinant CRTC3 WT vs S329A variant by western blot [3, 9] |
| --- | --- | --- | --- | --- | --- | --- | --- | --- |
| mAb #21: anti-phospho-Serine329 CRTC3 monoclonal antibody from rabbit hybridoma; VH SEQ ID NO: 99, VL SEQ ID NO: 100 (antibody, V domains shown) VH: QSVEESGGRLVTPGTPLTLTCTVSGIDLSSNTVSWVRQAPGKGLEWIGVSGYSGRPYYASWAKGRFTISKTSSTVHLKITSPTAEDTATYFCARGSVNVNIWGPGTLVTVSS VL: AQVLTQTASPVSAAVGGTVTINCQSSQSVYSSNRLSWFQQKPGQPPKLLMYYTSTLASGVPSRFKGSGSGTEFTLTISGVQCDDAATYYCLGGYDCDIADCSAFGGGTEVVVK | – | – | – | strong signal | strongly diminished | specifically recognized only recombinant CRTC3 protein harboring the WT sequence | specifically detected human CRTC3 only when phosphorylated at serine 329 | specifically recognized only recombinant CRTC3 protein harboring the WT sequence |
| mAb #82: anti-phospho-Serine329 CRTC3 monoclonal antibody from rabbit hybridoma; VH SEQ ID NO: 133, VL SEQ ID NO: 134 (antibody, V domains shown) VH: QSVEESGGRLVTPGTPLTLTCTVSGIDLSSNTVSWVRQAPGKGLEWIGVIGYSGNGYYASWAKGRFTISKTSTTVDLKMTSPTAEDTATYFCARGSVNCNIWGPGTLVTVSS VL: AQVLTQTASPVSAAVGGTVTINCQSSQSVISNNRLSWLQQKPGQPPKLLIYYASTLASGVPSRFKGSGSGTQFTLTISGVQCDDAATYYCLGGYDCNSADCSTFGGGTEVVVK | – | – | – | strong signal | strongly diminished | specifically recognized only recombinant CRTC3 protein harboring the WT sequence | specifically detected human CRTC3 only when phosphorylated at serine 329 | specifically recognized only recombinant CRTC3 protein harboring the WT sequence |

Continued, in another order:

| signal with recombinant CRTC3 WT vs S370A mutant by western blot [1, 4] | signal with recombinant CRTC3 WT vs S370A mutant by western blot [1, 5] | Molecule | specific recognition of human CRTC3 by phosphorylation state (conclusion of the experiments) [1] | immunoblot signal at the expected molecular size in THP1 lysates [2, 6] | immunoblot signal at the expected molecular size in THP1 lysates [2, 7] | recognition of recombinant CRTC3 WT vs S329A variant by western blot [3, 8] | specific detection of human CRTC3 by phosphorylation state (conclusion of the experiments) [3] | recognition of recombinant CRTC3 WT vs S329A variant by western blot [3, 9] |
| --- | --- | --- | --- | --- | --- | --- | --- | --- |
| specific signal only with WT | specific signal only with WT | mAb #157: anti-phospho-Serine370 CRTC3 monoclonal antibody from rabbit hybridoma; VH SEQ ID NO: 31, VL SEQ ID NO: 32 (antibody, V domains shown) VH: QEQLKESGGGLFKPMDILTVTCTVSGISLSSYGLSWVRQAPGNGLEWIGAIGASGSAYYASWAKSRSTITRNTNLNTVTLKMTSLTAADTATYFCKRNYIWGPGTLVTVSS VL: AQVLTQTASPVSAAVGGTVTINCQASQSVYSDNRLSWYQQKPGQPPKLLIYEASKLASGVPPRFSGSGSGTQFTLAISGVQCDDAATYYCQGSYDCNSADCSAFGGGTEVVVK | specifically recognized human CRTC3 only when phosphorylated at serine 370 | strong signal | strongly diminished | – | – | – |
| specific signal only with WT | specific signal only with WT | mAb #170: anti-phospho-Serine370 CRTC3 monoclonal antibody from rabbit hybridoma; VH SEQ ID NO: 65, VL SEQ ID NO: 66 (antibody, V domains shown) VH: QSMKESEGGLFKPTDTLTLTCTVSGFSLSRYGVIWVRQAPGKGLEFIGYISSTGSTYYASWAKSRSTITRNTNENTVTLKVTSLTAADTATYFCAQSGLGYDGGRNIWGPGTLVTVSS VL: AAVLTQTPSPVSAAVGGTVSISCQSSKSVANSNWLSWYQQKPGQPPKLLIYSASTLASGAPSRFKGSGSGTQFTLTISDVQCDDAATYYCAGGYSDISDIFGFGGGTEVVVK | specifically recognized human CRTC3 only when phosphorylated at serine 370 | strong signal | strongly diminished | – | – | – |

Source: patent US20240262900A1, “MATERIALS AND METHODS FOR DIFFERENTIATING CREB REGULATEDTRANSCRIPTION COACTIVATOR 3” (JANSSEN BIOTECH, INC., priority 2021, published 2024)
